Data from publication PMC2120815.

Biological target: cytoplasmic dynein intermediate chain (Xenopus laevis (endogenous in egg extract))
Experiment: co-IP

An interphase/metaphase ratio of the amount brought down of 1.08 was found for “cytoplasmic dynein heavy chain (natural protein)” in this work.
